Data published in patent US9764004B2 (Eli Lilly and Company, priority 2015, dated 2017).

Columns and labels:
[1] = biological target: T1, human glucagon receptor (hGcg-R) (Homo sapiens, UniProt P47871); test: hGcg-R functional cAMP assay; format: cell-based; settings: geometric mean ± SEM
T1 construct: expressed in transfected cells; host or cells: 293HEK, plasmid phD, hygromycin selection

[2] = biological target: human Glucagon-Like Peptide-1 receptor (hGLP-1R) (Homo sapiens, UniProt P43220); test: hGLP-1-R functional cAMP assay
[3] = Stability in Co-Formulation with GLP-1R Agonist (dulaglutide); format: physicochemical; settings: four weeks, dulaglutide 3 mg/mL
Description: Examples 1 and 3 are prepared and dialyzed against C6.5 (10 mM Citrate pH 6.5) using the same method as described above for preparation into T7 buffer. Compounds are formulated separately at 1 mg/mL peptide in buffer C6.5, C6.5M (10 mM Citrate, 46.4 mg/mL D-mannitol, pH 6.5), C6.5T (10 mM Citrate, 0.02% polysorbate-80, pH 6.5), and C6.5MT (10 mM Citrate, 46.4 mg/mL D-mannitol, 0.02% polysorbate-80, pH 6.5). A stock concentration of 46.5 mg/mL of dulaglutide in C6.5 is used to formulate dulaglutide at 3 mg/mL in C6.5 and C6.5MT. Co-formulations in C6.5MT are prepared having 3 mg/mL dulaglutide and 1 mg/mL Example 1, or 3 mg/mL dulaglutide and 1 mg/mL Example 3. Each formulated sample is transferred to three vials and maintained at 4° C., 25° C. and 40° C. Samples are assessed every two weeks for a total of four weeks. Samples are visually assessed for turbidity and phase separation. Stability is assessed by RP-HPLC and SEC-HPLC as described above. Both described HPLC methods give good separation of Example compounds and dulaglutide main peaks as well as all degradation peaks produced by stressing the sample at pH 9 and 40° C. for 3 days.

T1 sequence (P47871 26-477): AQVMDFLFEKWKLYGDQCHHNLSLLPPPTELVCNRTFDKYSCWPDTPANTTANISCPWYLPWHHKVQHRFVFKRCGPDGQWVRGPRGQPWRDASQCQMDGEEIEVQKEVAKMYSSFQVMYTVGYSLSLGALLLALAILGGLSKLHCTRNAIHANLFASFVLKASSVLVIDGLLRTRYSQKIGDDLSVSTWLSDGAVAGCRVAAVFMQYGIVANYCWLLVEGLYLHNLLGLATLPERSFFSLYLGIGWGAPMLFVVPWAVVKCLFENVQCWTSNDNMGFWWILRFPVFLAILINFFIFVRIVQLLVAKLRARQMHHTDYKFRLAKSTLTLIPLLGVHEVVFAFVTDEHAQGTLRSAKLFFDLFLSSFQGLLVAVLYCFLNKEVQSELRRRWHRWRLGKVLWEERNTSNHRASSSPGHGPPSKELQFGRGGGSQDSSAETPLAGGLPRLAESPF

Molecule: CC[C@H](C)[C@H](NC(=O)[C@H](CO)NC(=O)[C@H](Cc1ccc(O)cc1)NC(=O)[C@H](CC(=O)O)NC(=O)[C@H](CO)NC(=O)[C@@H](NC(=O)[C@H](Cc1ccccc1)NC(=O)[C@@H](NC(=O)CNC(=O)[C@H](CCC(=O)O)NC(=O)[C@H](C)NC(=O)[C@@H](N)Cc1ccc(O)cc1)[C@@H](C)O)[C@@H](C)CC)C(=O)N[C@@H](C)C(=O)N[C@@H](CCSC)C(=O)N[C@@H](CC(=O)O)C(=O)N[C@@H](CCCCN)C(=O)N[C@H](C(=O)N[C@@H](Cc1c[nH]cn1)C(=O)N[C@@H](CCC(N)=O)C(=O)N[C@@H](CCC(N)=O)C(=O)N[C@@H](CC(=O)O)C(=O)N[C@@H](Cc1ccccc1)C(=O)N[C@H](C(=O)N[C@@H](CC(N)=O)C(=O)N[C@@H](Cc1c[nH]c2ccccc12)C(=O)N[C@@H](CC(C)C)C(=O)N[C@@H](CC(C)C)C(=O)N[C@@H](C)C(=O)N[C@@H](CCC(N)=O)C(=O)N[C@@H](CCCCN)C(=O)NCC(=O)N[C@@H](CCCCN)C(=O)N[C@@H](CCCCN)C(=O)N[C@@H](CC(N)=O)C(=O)N[C@@H](CC(=O)O)C(=O)N[C@@H](Cc1c[nH]c2ccccc12)C(=O)N[C@@H](CCCCN)C(=O)N[C@@H](Cc1c[nH]cn1)C(=O)N[C@@H](CC(N)=O)C(=O)N[C@H](C(=O)N[C@H](C(=O)N[C@@H](CCC(N)=O)C(N)=O)[C@@H](C)O)[C@@H](C)CC)C(C)C)[C@@H](C)CC [Human GIP, human GIP(1-42)NH2]
- EC50 [1]: > 10 nM

Molecule: dulaglutide
- GLP-1-Fc Δ % Main Peak ([3]; RP-HPLC, C6.5, 25° C.): >−10%
- GLP-1-Fc Δ % Main Peak ([3]; RP-HPLC, C6.5MT, 4° C.): −0.46%
- GLP-1-Fc Δ % Main Peak ([3]; RP-HPLC, C6.5MT, 25° C.): −0.8%
- GLP-1-Fc Δ % Main Peak ([3]; SEC-HPLC, C6.5, 4° C.): 0.19%
- GLP-1-Fc Δ % Main Peak ([3]; SEC-HPLC, C6.5, 25° C.): −0.54%
- GLP-1-Fc Δ % Main Peak ([3]; SEC-HPLC, C6.5, 40° C.): >−10%
- GLP-1-Fc Δ % Main Peak ([3]; SEC-HPLC, C6.5MT, 4° C.): 0.29%
- GLP-1-Fc Δ % Main Peak ([3]; SEC-HPLC, C6.5MT, 25° C.): −0.87%
- GLP-1-Fc Δ % Main Peak ([3]; SEC-HPLC, C6.5MT, 40° C.): −0.83%
